These results are taken from patent US8093046B2, “CVN-12p1: a recombinant allosteric lectin antagonist of HIV-1 envelope gp120 interactions” (Philadelphia Health and Education Corporation d/b/c Drexel …, priority 2006, dated 2012).

The subject of data set [1] is HIV-1 BaL. In words: Viral synergy study, HIV-1 BaL replication in PM-1 cells (gp120 ELISA). Format: cell-based. The conditions noted are these: 12p1 16-31 μM. The method, then:
The curves are also shown for the dose response expected if the effects were simply additive.
Viral replication was determined by gp120 ELISA after a seven day incubation.
Dilutions and cells were in RPMI supplemented with 10% fetal calf serum, pen, strep and glutamine. Cells were incubated for 7 days and viral replication determined by gp120 ELISA. Each condition was performed in sextuplet and the mean used to calculate IC50 values. Analysis of combined effects was also carried out using the median effect principle developed by Chou and Talalay^39,40, and using the computer program CalcuSyn (BioSoft).
In general terms: In an ELISA, binding on a coated surface is turned into a signal by an enzyme label.

In the next data set the target is YU2 gp120 (Human immunodeficiency virus type 1 group M subtype B, UniProt P35961). Particulars: read-out: Equilibrium dissociation constant KD for binding to YU2; cited from earlier work.
Data set [2] has as its system HIV-1 BaL. Particulars: recombinant CVN; cited from earlier work.
For the next data set, the system named is SHIV89.6P. Particulars: cited from earlier work.
Another data set addresses T1, YU2 gp120 / mAb F105 (Human immunodeficiency virus type 1 group M subtype B, UniProt P35961).
T1 construct: made in house; host or cells: gp120: Drosophila S2 cells
Particulars: from literature; cited from earlier work.

Data set [3] has as its system SIV/HIV-1 virus SHIV89.6P. The conditions noted are these: gel formulations applied rectally, male macaques; cited from earlier work.
Data set [4] concerns gp120s from a variety of strains of HIV-1 of diverse clades and tropisms. In words: ELISA binding to gp120 of a variety of clades and tropisms. The conditions noted are these: 50 nM, 100 ng gp120. The text has this:
Bars represent triplicate determination after the subtraction of non-specific binding to BSA. Error bars indicate one standard deviation.
We therefore tested the ability of the chimera to bind to the gp120s from a variety of strains of HIV-1 of diverse clades and tropisms.

The target in the next data set is HIV-1YU2 gp120 (Human immunodeficiency virus type 1 group M subtype B, UniProt P35961). The conditions noted are these: at 300 nM, about 250 RUs gp120 immobilized. The procedure: Approximately 250 RUs of either YU2 gp120 or the non-specific control antibody 2B6R were immobilized to a CM5 dextran chip by amine coupling. […] Signals from the reference 2B6R flow cell were used to correct for non-specific interactions and bulk effects (FIGS. 4A, B).
All surface plasmon resonance studies were performed on a Biacore 3000 (Biacore Inc., Uppsala, Sweden). CM5 dextran chip was derivatized by amine coupling with 250 RUs of YU2 gp120 or 2B6R (anti-IL5 receptor βchain) IgG as a control surface. […] Surfaces were regenerated with multiple short pulses of 10 mM glycine HCl, pH 1.7.

The target in data set [5] is T2, YU2 gp120 / mAb 17b (Human immunodeficiency virus type 1 group M subtype B, UniProt P35961). Particulars: from literature; cited from earlier work.
The target of data set [6] is gp120 of HIV-1 JRFL and HIV-1 89.6. The conditions noted are these: cited from earlier work.
A further data set addresses YU2 gp120 / mAb 2G12 (Human immunodeficiency virus type 1 group M subtype B, UniProt P35961). The conditions noted are these: ELISA, 50 μg/ml 2G12. The source says:
Monomeric HIV-1YU2 gp120 was adsorbed onto ELISA plates overnight prior to blocking with 1% BSA.
This antibody recognizes the conformationally-flexible, CD4-unliganded form of gp120^53.

Data set [7] addresses T2, YU2 gp120 / mAb 17b. Particulars: ELISA, 2 μg/ml 17b.

With RINNIPWSEAMM [12p1], the “Inhibitory effect on viral replication alone” value with HIV-1 BaL [1] was “only small inhibitory effect”.

B1: CVN: 11 kDa protein originally isolated from the cyanobacterium Nostoc ellipsosporum, binds high mannose oligosaccharides of gp120 (protein)
chain: LGKFSQTCYNSAIQGSVLTSTCERTNGGYNTSSIDLNSVIENVDGSLKWQPSNFIETCRNTQLAGSSELAAECKTRAQQFVSTKINLDDHIANIDGTLKYEHHHHHH
As to B1, the Kd with YU2 gp120 is 11 nM. Besides, in the data set with HIV-1 BaL [2], the “Cytotoxic effects in ectocervical explants” value is “no cytotoxic effects” and the “Infection of human ectocervical explants” value was “blocked HIV-1 BaL infection”. The “Clinically adverse effects in in vivo assays” value in the data set with SHIV89.6P (macaques, gel) was “no clinically adverse effects”. In addition, the “CVN treated macaques not infected” value in the data set on SHIV89.6P (vaginal gel, SHIV89.6P challenge, controls 8 of 8 infected) is listed as 15 of 18. Moreover, in the data set with YU2 gp120 / mAb F105, the “Effect on F105 binding to gp120” value was “minimal effect”. The “Protection against rectal challenge” value in [3] was “protected against challenge”. For the same molecule, the “Binding to gp120s of diverse strains in ELISA” value in data set [4] is given as “behaved equivalently with all strains tested”. In addition, the “Biosensor signal on immobilized YU2 gp120” value with HIV-1YU2 gp120 is on record as 95 RU. Besides, in the data set with YU2 gp120 / mAb 17b [5], the “Effect on 17b-gp120 interaction” value is reported as “cannot inhibit this interaction”. For the same molecule, the “Affinity (KD) of interaction with gp120” value in data set [6] was “in the nM KD range”. Further, the “Competition of gp120 binding to 2G12 antibody” value with YU2 gp120 / mAb 2G12 was “show the expected competition”. Further, the “Effect on interaction between 17b and gp120” value in the data set with YU2 gp120 / mAb 17b [7] is on record as “neither CVN nor L5-S12p1 had any effect”.

One may read the Kd as the free concentration of one partner at which half of the binding sites on the other are occupied at equilibrium, for simple one-to-one binding.
